Measured values as given in patent US20150005230A1, “CYCLODEXTRIN-BASED POLYMERS FOR THERAPEUTIC DELIVERY” (priority 2012, published 2015).

Molecular target: human albumin (Homo sapiens, UniProt P02768)
Assay: Release of CPT in reconstituted human albumin (PBS solution)
Type: in vitro ADME
Details: in the presence of albumin
Protocol: Samples were stored at −80° C. until the analysis.

human albumin, sequence (P02768 25-609): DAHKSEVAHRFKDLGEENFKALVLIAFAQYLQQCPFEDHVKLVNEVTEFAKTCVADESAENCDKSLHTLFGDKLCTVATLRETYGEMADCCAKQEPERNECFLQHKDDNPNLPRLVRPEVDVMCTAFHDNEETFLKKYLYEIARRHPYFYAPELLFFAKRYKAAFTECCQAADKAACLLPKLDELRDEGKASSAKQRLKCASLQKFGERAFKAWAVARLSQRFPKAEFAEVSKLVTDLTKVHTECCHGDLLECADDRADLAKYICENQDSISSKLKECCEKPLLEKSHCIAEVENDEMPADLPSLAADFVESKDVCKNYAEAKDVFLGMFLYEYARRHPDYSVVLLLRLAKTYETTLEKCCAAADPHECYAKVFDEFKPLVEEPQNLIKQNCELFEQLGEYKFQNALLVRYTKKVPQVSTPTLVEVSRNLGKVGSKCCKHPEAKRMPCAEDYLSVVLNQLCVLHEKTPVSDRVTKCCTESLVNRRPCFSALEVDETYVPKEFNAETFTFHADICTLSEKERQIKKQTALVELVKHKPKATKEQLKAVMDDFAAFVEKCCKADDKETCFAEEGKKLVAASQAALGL

Substance	CPT release rate compared with PBS
Poly(CDDCys-PA-PEG)-Gly-CPT [HG6]	on the same order of magnitude as in PBS
Poly(CDDCys-PA-PEG)-GlyGlyGly-CPT [HGGG6]	on the same order of magnitude as in PBS
